The record followed here is patent EP4667494A2 (Fundación Instituto de Investigación Sanitaria Fundación …, dated 2025).

The test concerns the target T1, CD79b (UniProt P40259 29-229, limits assumed).
T1 construct: whole, on cells; Endogenous CD79b on human lymphoma cell lines
T1 sequence (looked up): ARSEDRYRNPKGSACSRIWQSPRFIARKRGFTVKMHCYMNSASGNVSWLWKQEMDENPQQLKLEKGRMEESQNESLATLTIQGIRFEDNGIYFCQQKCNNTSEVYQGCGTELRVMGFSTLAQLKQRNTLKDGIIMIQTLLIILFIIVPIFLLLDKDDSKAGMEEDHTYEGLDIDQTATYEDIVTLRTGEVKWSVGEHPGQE
Nature of the test: flow cytometry on NHL cell lines Ramos and Daudi. In general terms: Flow cytometry measures light scatter and fluorescence of single cells or particles in a stream.

B1: CARLY3 monoclonal murine antibody against CD79b (antibody, V domains shown)
VH: QVQLQQPGAELVRPGASLKLSCKTSGYTFTDYWMNWVKQRPGQGLEWIGMIDPSDSETHYNQMFKDKATLTVDKSSSTAYMQLSSLTSEDSAVYYCTRNLNYWGQGTTLTVSS
VL: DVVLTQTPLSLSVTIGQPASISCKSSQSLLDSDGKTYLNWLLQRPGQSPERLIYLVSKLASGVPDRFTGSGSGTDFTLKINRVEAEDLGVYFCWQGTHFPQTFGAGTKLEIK
notes: Murine monoclonal from a hybridoma; it was detected with anti-mouse IgG-Alexa647 in confocal microscopy
For the molecule B1, the binding result is listed as “binds”.

B2: CARLY1 monoclonal murine antibody against CD79b (antibody, V domains shown)
VH: QVQLQQPGAELVRPGASVKLSCKASGYTFTSYWMNWVKQRPGQGLEWIGMIDPSDSETHYNQMFRDKATLTVDKPSNTAYMQLSRLTSEDSAVYYCARALGYWGQGTSVTVSS
VL: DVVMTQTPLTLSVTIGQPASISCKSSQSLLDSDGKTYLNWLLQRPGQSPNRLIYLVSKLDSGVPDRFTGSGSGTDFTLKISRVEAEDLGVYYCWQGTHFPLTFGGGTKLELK
notes: Murine monoclonal from a hybridoma, made by an external service; The variable domains are tied to the name CARLY 1 in the definition section
As to B2, the binding result is reported as “binds”.

B3: CARLY2 monoclonal murine antibody against CD79b (antibody, V domains shown)
VH: QVQLQQPGAELVRPGASVKLSCKASGYTFTTYWMNWVKQRPGQGLEWIGMIDPSDSETHYNQMFKDKATLTVDKSSTTAYMQLSSLTSEDSAVYYCARTLSYWGQGTLVTVSA
VL: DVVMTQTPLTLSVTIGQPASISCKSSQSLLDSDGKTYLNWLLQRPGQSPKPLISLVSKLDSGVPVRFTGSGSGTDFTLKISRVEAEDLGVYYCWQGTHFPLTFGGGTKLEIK
notes: as for B1
B3: the binding result is “binds”.
